Data taken from patent publication US20080058263A1 (published 2008).

Legend:
Assay in all cases: receptor-Fc IP
VEGFR-1-Fc = molecular target: T1, VEGFR-1-Fc (UniProt P17948 27-338)
T1 construct: domain: first three Ig domains; expressed in Drosophila S2 cells, purified on Protein A sepharose; also called VEGFR-1-Fc fusion protein; not shown: Fc fragment from the Signal-pIgPlus vector
Method in brief: (§1)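 Binding of ligand from sample supernatant measured by pentahistidine-antibody immunoprecipitation. IP mix: PBS with 1.5% BSA, 0.06% Tween 20, 3 μg/ml heparin and 400 ng/ml fusion protein, added 1:2 to sample supernatant.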

VEGFR-3-Fc = molecular target: T2, VEGFR-3-Fc (UniProt P35916 25-328)
T2 construct: domain: first three Ig domains; conditioned supernatant of 293T cells; also called VEGFR-3-Fc fusion protein; not shown: Fc fragment of the pIg vector
T2 sequence (looked up): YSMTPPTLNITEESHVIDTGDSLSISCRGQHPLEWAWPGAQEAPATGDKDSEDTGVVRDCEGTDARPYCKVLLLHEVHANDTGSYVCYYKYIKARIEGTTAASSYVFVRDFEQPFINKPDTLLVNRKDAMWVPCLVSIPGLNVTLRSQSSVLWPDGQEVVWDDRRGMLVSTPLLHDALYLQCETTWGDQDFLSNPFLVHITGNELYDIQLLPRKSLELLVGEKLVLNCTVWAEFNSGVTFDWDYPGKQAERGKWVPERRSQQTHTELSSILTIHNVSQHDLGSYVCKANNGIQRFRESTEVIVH
Method in brief: as §1

VEGFR-2-Fc = molecular target: T3, VEGFR-2-Fc (UniProt P35968 20-322)
T3 construct: domain: first 3 Ig domains; conditioned supernatant of 293T cells; also called VEGFR-2-Fc fusion protein; not shown: Fc fragment of the pIg vector
T3 sequence (P35968 20-322): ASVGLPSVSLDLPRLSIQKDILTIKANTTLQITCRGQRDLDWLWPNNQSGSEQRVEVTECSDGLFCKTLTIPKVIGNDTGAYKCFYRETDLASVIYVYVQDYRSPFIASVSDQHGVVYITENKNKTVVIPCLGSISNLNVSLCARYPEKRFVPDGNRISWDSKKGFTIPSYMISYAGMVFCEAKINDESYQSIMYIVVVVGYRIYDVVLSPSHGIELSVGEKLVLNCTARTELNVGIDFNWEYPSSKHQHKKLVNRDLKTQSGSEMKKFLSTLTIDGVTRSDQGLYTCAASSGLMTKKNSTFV
Method in brief: as §1

Measured: binding result

T1 sequence (P17948 27-338): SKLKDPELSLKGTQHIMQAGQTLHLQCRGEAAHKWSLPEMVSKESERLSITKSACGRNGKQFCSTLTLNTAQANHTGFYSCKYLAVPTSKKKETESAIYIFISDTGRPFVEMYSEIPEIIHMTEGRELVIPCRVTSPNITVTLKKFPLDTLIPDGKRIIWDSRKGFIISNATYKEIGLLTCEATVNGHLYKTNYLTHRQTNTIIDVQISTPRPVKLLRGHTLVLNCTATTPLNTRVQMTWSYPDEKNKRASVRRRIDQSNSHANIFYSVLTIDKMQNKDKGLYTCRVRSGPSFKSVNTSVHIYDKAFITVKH

B1: 24-12 (ligand)
chain: AHYNTEILKSIDNEWRKTQCMPREVCIDVGKEFGVATNTFFKPSCVPLMRCGGCCNSEGLQCMNTSTSYLSKTLFEITVPLSQGPKPVTISFLQHNKCECRPKKD
no binding: all assays above

B2: 21-12 (ligand)
chain: AHYNTEILKSIDNEWRKTQCMPREVCIDVGKEYPDEIEYIFKPSCVPLMRCGGCCNSEGLQCMNTSTSYLSKTLFEITVPLSQGPKPVTISFLQHNKCECRPKKD
no binding: all assays above

B3: 32-13 (ligand)
chain: GQNHHEVVKSIDNEWRKTQCMPIETLVDIFQEFGVATNTFFKPPCVSVYRCGGCCNDEGLECVPTEESNITMQIMRITVPLSQGPKPVTISFANHTSCRCMSKLD
no binding: all assays above

B4: 51-1 (ligand)
chain: AHYNTEILKSIDNEWRKTQCMPIETLVDIFQEYPDEIEYIFKPSCVPLMRCGGCCNDEGLECVPTEESNITMQIMRIKPHQGQHIGEMSFLQHNKCECRPKKD
no binding: all assays above

B5: 51-3 (ligand)
chain: AHYNTEILKSIDNEWRKTQCMPIETLVDIFQEYPDEIEYIFKPSCVPLMRCGGCCNSEGLQCVPTEESNITMQIMRIKPHQGQHIGEMSFLQHNKCECRPKKD
no binding: all assays above

B6: 51-7 (ligand)
chain: AHYNTEILKSIDNEWRKTQCMPIETLVDIFQEYPDEIEYIFKPSCVPLMRCGGCCNSEGLQCVPTEESNITMQIMRIKPHQGQHIGEMSFANHTSCRCMSKLD
no binding: all assays above

B7: 51-5 (ligand)
chain: AHYNTEILKSIDNEWRKTQCMPIETLVDIFQEYPDEIEYIFKPSCVPLMRCGGCCNDEGLECVPTEESNITMQIMRIKPHQGQHIGEMSFANHTSCRCMSKLD
no binding: all assays above

B8: 32-1 (ligand)
chain: GQNHHEVVKSIDNEWRKTQCMPIETLVDIFQEFGVATNTFFKPPCVSVYRCGGCCNDEGLECVPTEESNITMQIMRIKPHQGQHIGEMSFLQHNKCECRPKKD
no binding: all assays above

B9: 32-7 (ligand)
chain: GQNHHEVVKSIDNEWRKTQCMPIETLVDIFQEFGVATNTFFKPPCVSVYRCGGCCNSEGLQCVPTEESNITMQIMRIKPHQGQHIGEMSFANHTSCRCMSKLD
no binding: all assays above

B10: 32-5 (ligand)
chain: GQNHHEVVKSIDNEWRKTQCMPIETLVDIFQEFGVATNTFFKPPCVSVYRCGGCCNDEGLECVPTEESNITMQIMRIKPHQGQHIGEMSFANHTSCRCMSKLD
no binding: all assays above

B11: 52-3 (ligand)
chain: AHYNTEILKSIDNEWRKTQCMPIETLVDIFQEFGVATNTFFKPPCVSVYRCGGCCNSEGLQCVPTEESNITMQIMRIKPHQGQHIGEMSFLQHNKCECRPKKD
no binding: all assays above

B12: 32-3 (ligand)
chain: GQNHHEVVKSIDNEWRKTQCMPIETLVDIFQEFGVATNTFFKPPCVSVYRCGGCCNSEGLQCVPTEESNITMQIMRIKPHQGQHIGEMSFLQHNKCECRPKKD
no binding: all assays above

B13: 52-1 (ligand)
chain: AHYNTEILKSIDNEWRKTQCMPIETLVDIFQEFGVATNTFFKPPCVSVYRCGGCCNDEGLECVPTEESNITMQIMRIKPHQGQHIGEMSFLQHNKCECRPKKD
no binding: all assays above

B14: 51-2 (ligand)
chain: AHYNTEILKSIDNEWRKTQCMPIETLVDIFQEYPDEIEYIFKPSCVPLMRCGGCCNDEGLECMNTSTSYLSKTLFEIKPHQGQHIGEMSFLQHNKCECRPKKD
no binding: all assays above

B15: 51-4 (ligand)
chain: AHYNTEILKSIDNEWRKTQCMPIETLVDIFQEYPDEIEYIFKPSCVPLMRCGGCCNSEGLQCMNTSTSYLSKTLFEIKPHQGQHIGEMSFLQHNKCECRPKKD
no binding: all assays above

B16: 51-8 (ligand)
chain: AHYNTEILKSIDNEWRKTQCMPIETLVDIFQEYPDEIEYIFKPSCVPLMRCGGCCNSEGLQCMNTSTSYLSKTLFEIKPHQGQHIGEMSFANHTSCRCMSKLD
no binding: all assays above

B17: 51-9 (ligand)
chain: AHYNTEILKSIDNEWRKTQCMPIETLVDIFQEYPDEIEYIFKPSCVPLMRCGGCCNDEGLECVPTEESNITMQIMRITVPLSQGPKPVTISFLQHNKCECRPKKD
no binding: all assays above

B18: 51-13 (ligand)
chain: AHYNTEILKSIDNEWRKTQCMPIETLVDIFQEYPDEIEYIFKPSCVPLMRCGGCCNDEGLECVPTEESNITMQIMRITVPLSQGPKPVTISFANHTSCRCMSKLD
no binding: all assays above

B19: 51-11 (ligand)
chain: AHYNTEILKSIDNEWRKTQCMPIETLVDIFQEYPDEIEYIFKPSCVPLMRCGGCCNSEGLQCVPTEESNITMQIMRITVPLSQGPKPVTISFLQHNKCECRPKKD
no binding: all assays above

B20: 51-15 (ligand)
chain: AHYNTEILKSIDNEWRKTQCMPIETLVDIFQEYPDEIEYIFKPSCVPLMRCGGCCNSEGLQCVPTEESNITMQIMRITVPLSQGPKPVTISFANHTSCRCMSKLD
no binding: all assays above

B21: 32-6 (ligand)
chain: GQNHHEVVKSIDNEWRKTQCMPIETLVDIFQEFGVATNTFFKPPCVSVYRCGGCCNDEGLECMNTSTSYLSKTLFEIKPHQGQHIGEMSFANHTSCRCMSKLD
no binding: all assays above

B22: 32-8 (ligand)
chain: GQNHHEVVKSIDNEWRKTQCMPIETLVDIFQEFGVATNTFFKPPCVSVYRCGGCCNSEGLQCMNTSTSYLSKTLFEIKPHQGQHIGEMSFANHTSCRCMSKLD
no binding: all assays above

B23: 24-13 (ligand)
chain: AHYNTEILKSIDNEWRKTQCMPREVCIDVGKEFGVATNTFFKPSCVPLMRCGGCCNDEGLECVPTEESNITMQIMRITVPLSQGPKPVTISFANHTSCRCMSKLD
no binding: all assays above

B24: 24-15 (ligand)
chain: AHYNTEILKSIDNEWRKTQCMPREVCIDVGKEFGVATNTFFKPSCVPLMRCGGCCNSEGLQCVPTEESNITMQIMRITVPLSQGPKPVTISFANHTSCRCMSKLD
no binding: all assays above

B25: 21-13 (ligand)
chain: AHYNTEILKSIDNEWRKTQCMPREVCIDVGKEYPDEIEYIFKPSCVPLMRCGGCCNDEGLECVPTEESNITMQIMRITVPLSQGPKPVTISFANHTSCRCMSKLD
no binding: all assays above
